Measurements: patent US20030073629A1, “Omi and domains thereof that disrupt IAP-caspase interaction” (priority 2001, published 2003)

Experiments:
MCF-7 cells = experiment: Apoptosis of MCF-7 cells transfected with cytosolic Omi-GFP fusion proteins; type: cell-based; settings: 36 hours following transfection
Method: FIG. 20 provides schematic diagrams of the Omi-GFP and GFP-IETD-Omi constructs used to assay the ability of Omi to induce apoptosis or to enhance apoptosis by other stimuli.
FIG. 21 is a bar graphic representation of the percentages of GFP-positive apoptotic MCF-7 cells 36 hours following transfection with M-Omi-S/A-GFP or pEGFP-N1 alone or M-Omi-GFP together with empty vector or expression construct encoding XIAP, XIAP-BIR3, or caspase-9DN. The cells were also transfected with M-Omi-GFP expression construct in the presence of zVAD-FMK (20 μM).

XIAP-BIR3 = biological target: T1, XIAP-BIR3 (Homo sapiens, UniProt P98170); experiment: GST-BIR3 precipitation of extracts of transfected 293T cells; type: binding; settings: 24 hours after transfection
T1 construct: Omi associates directly with the BIR3 domain of XIAP
Method: FIG. 24 is a scanned image of an immunoblot with Flag-HRP antibody of 293T cells extracts precipitated with GST-BIR3 24 hours after transfection with the indicated expression constructs extracts.
Next, the contribution of the IAP binding activity of Omi to its proapoptotic activity was tested. The MTS of Omi was replaced with a GFP-IETD sequence and mutated at its active site Ser306 to Ala (FIG. 20, GFP-IETD-AVP). Of note, the presence of the IETD sequence between GFP and Omi-S/A allowed caspase-dependent cleavage at the IETD site after the Asp residue and release of mature Omi-S/A in the cytosol of the transfected 293 and MCF-7 cells (FIG. 23). […] Taken together, Omi not only can induce apoptosis through its serine protease activity but also via its ability to bind and neutralize IAPs.

T1 sequence (P98170 238-358 limits assumed): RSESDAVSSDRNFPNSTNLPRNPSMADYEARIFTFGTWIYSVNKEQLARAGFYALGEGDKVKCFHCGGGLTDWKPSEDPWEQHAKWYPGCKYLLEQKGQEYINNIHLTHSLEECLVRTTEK

B1: M-Omi-S/A-GFP: inactive (S306A) Omi-GFP fusion protein without the MTS (protein)
chain: MAVPSPPPASPRSQYNFIADVVEKTAPAVVYIEILDRHPFLGREVPISNGSGFVVAADGLIVTNAHVVADRRRVRVRLLSGDTYEAVVTAVDPVADIATLRIQTKEPLPTLPLGRSADVRQGEFVVAMGSPFALQNTITSGIVSSAQRPARDLGLPQTNVEYIQTDAAIDFGNAGGPLVNLDGEVIGVNTMKVTAGISFAIPSDRLREFLHRGEKKNSSSGISGSQRRYIGVMMLTLSPSILAELQLREPSFPDVQHGVLIHKVILGSPAHRAGLRPGDVILAIGEQMVQNAEDVYEAVRTQSQLAVQIRRGRETLTLYVTPEVTE
modifications: left off: large carriers
B1 was tested, and the “induction of apoptosis in MCF-7 cells” value (MCF-7 cells) was “not the inactive M-Omi-S/A-GFP, was able to induce apoptosis” and the “binding to XIAP-BIR3 (GST-BIR3)” value (XIAP-BIR3) was “do not bind XIAP-BIR3”.
